# Reference: patent US20240279318A1 (NANJING LEGEND BIOTECH, published 2024)
# Residue numbers refer to the chain shown, from its start.
# B1: LY34H (scFv)
# scFv: QSALTQPRSVSGSPGQSVTISCAGTSSDVGSENHVSWYQQHPGKAPKLMIYQVNKRASGVPDRFSGSKSGNTASLTISGLQAEDEADYYCASYRSSDHNIVFGGGTKLTVLGGGGSGGGGSGGGGSEVQLVESGGGLVQPGGSLRLSCAASGFTFSSYAMSWVRQAPGKGLEWVSTINSGTGSPYYADSVKGRFTISRDNSKNTLYLQMNSLRAEDTAVYYCAKNFFDGSWFLGPPAMDYWGQGTLVTVSSHHHHHH
# notes: AS170036 VL1VH1 scFv mutein
# B2: LY93W (scFv)
# scFv: B1 scFv with H34Y, Y93W
# notes: AS170036 VL1VH1 scFv mutein
# B3: LH98S (scFv)
# scFv: B1 scFv with H34Y, H98S
# notes: AS170036 VL1VH1 scFv mutein
# B4: LD97T (scFv)
# scFv: B1 scFv with H34Y, D97T
# notes: AS170036 VL1VH1 scFv mutein
# B5: LH98F (scFv)
# scFv: B1 scFv with H34Y, H98F
# notes: AS170036 VL1VH1 scFv mutein; also called AS170036 VL1VH1-VLH98F
# B6: LD97N (scFv)
# scFv: B1 scFv with H34Y, D97N
# notes: AS170036 VL1VH1 scFv mutein
# B7: LH98P (scFv)
# scFv: B1 scFv with H34Y, H98P
# notes: AS170036 VL1VH1 scFv mutein; also called AS170036 VL1VH1-VLH98P
# B8: LY34W (scFv)
# scFv: B1 scFv with H34W
# notes: AS170036 VL1VH1 scFv mutein
# B9: LE32W (scFv)
# scFv: B1 scFv with E32W, H34Y
# notes: AS170036 VL1VH1 scFv mutein; also called AS170036 VL1VH1-VLE32W
# B10: LD97S (scFv)
# scFv: B1 scFv with H34Y, D97S
# notes: AS170036 VL1VH1 scFv mutein
# B11: LY93Q (scFv)
# scFv: B1 scFv with H34Y, Y93Q
# notes: AS170036 VL1VH1 scFv mutein
# B12: LH98A (scFv)
# scFv: B1 scFv with H34Y, H98A
# notes: AS170036 VL1VH1 scFv mutein; also called AS170036 VL1VH1-VLH98A
# B13: LE32D (scFv)
# scFv: B1 scFv with E32D, H34Y
# notes: AS170036 VL1VH1 scFv mutein
# B14: LY93I (scFv)
# scFv: B1 scFv with H34Y, Y93I
# notes: AS170036 VL1VH1 scFv mutein
# B15: LY93L (scFv)
# scFv: B1 scFv with H34Y, Y93L
# notes: AS170036 VL1VH1 scFv mutein
# B16: LH98T (scFv)
# scFv: B1 scFv with H34Y, H98T
# notes: AS170036 VL1VH1 scFv mutein; also called AS170036 VL1VH1-VLH98T
# B17: LY93V (scFv)
# scFv: B1 scFv with H34Y, Y93V
# notes: AS170036 VL1VH1 scFv mutein
# B18: LE32S (scFv)
# scFv: B1 scFv with E32S, H34Y
# notes: AS170036 VL1VH1 scFv mutein
# B19: LH98I (scFv)
# scFv: B1 scFv with H34Y, H98I
# notes: AS170036 VL1VH1 scFv mutein; also called AS170036 VL1VH1-VLH98I
# B20: LY93M (scFv)
# scFv: B1 scFv with H34Y, Y93M
# notes: AS170036 VL1VH1 scFv mutein
# B21: LH98N (scFv)
# scFv: B1 scFv with H34Y, H98N
# notes: AS170036 VL1VH1 scFv mutein
# B22: LH98W (scFv)
# scFv: B1 scFv with H34Y, H98W
# notes: AS170036 VL1VH1 scFv mutein
# B23: LY93F (scFv)
# scFv: B1 scFv with H34Y, Y93F
# notes: AS170036 VL1VH1 scFv mutein
# B24: LE32Y (scFv)
# scFv: B1 scFv with E32Y, H34Y
# notes: AS170036 VL1VH1 scFv mutein
# B25: LH98Q (scFv)
# scFv: B1 scFv with H34Y, H98Q
# notes: AS170036 VL1VH1 scFv mutein; also called AS170036 VL1VH1-VLH98Q
# B26: LH98G (scFv)
# scFv: B1 scFv with H34Y, H98G
# notes: AS170036 VL1VH1 scFv mutein
# B27: LD97R (scFv)
# scFv: B1 scFv with H34Y, D97R
# notes: AS170036 VL1VH1 scFv mutein
# B28: LH98M (scFv)
# scFv: B1 scFv with H34Y, H98M
# notes: AS170036 VL1VH1 scFv mutein
# B29: LH98R (scFv)
# scFv: B1 scFv with H34Y, H98R
# notes: AS170036 VL1VH1 scFv mutein
# B30: LH98V (scFv)
# scFv: B1 scFv with H34Y, H98V
# notes: AS170036 VL1VH1 scFv mutein; also called AS170036 VL1VH1-VLH98V
# B31: LH98L (scFv)
# scFv: B1 scFv with H34Y, H98L
# notes: AS170036 VL1VH1 scFv mutein
# B32: LH98Y (scFv)
# scFv: B1 scFv with H34Y, H98Y
# notes: AS170036 VL1VH1 scFv mutein
# B33: LE32G (scFv)
# scFv: B1 scFv with E32G, H34Y
# notes: AS170036 VL1VH1 scFv mutein
# B34: AS170036 VL1VH1-VHG56F (scFv)
# scFv: B1 scFv with H34Y, G182F
# B35: AS170036 VL1VH1-VHG56N (scFv)
# scFv: B1 scFv with H34Y, G182N
# B36: AS170036 VL1VH1-VHG108A (scFv)
# scFv: B1 scFv with H34Y, G234A
# B37: AS170036 VL1VH1-VHG56Y (scFv)
# scFv: B1 scFv with H34Y, G182Y
# B38: AS170036 VL1VH1-VHG108D (scFv)
# scFv: B1 scFv with H34Y, G234D
# Target: T1, AFP158/HLA-A*02:01 complex (human)
# T1 construct: flowed over the chip in SPR; also called AFP158 pro
# Assay: SPR, scFv captured, pMHC in flow;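 further: complex injected at several concentrations over crude scFv, association then running-buffer dissociation, KD estimated from kinetic on- and off-rate constants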
# Experimental: (§1) The experiment was carried out as follows. The crude scFv protein were captured onto the sensorchip. Different concentrations (320, 160, 40 nM) of AFP158/HLA-A*02:01 complex flowed over the sensorchip surface, and were allowed to bind the antibody fragment for 100 s followed by injection of the running buffer to allow dissociation of the complex. On-rate (kd) and off-rate (kd) were calculated based on association and dissociation curve, and were used to estimate the equilibrium dissociation constant (KD).
row,Binder,Kd [nM]
1,B1,540
2,B2,240
3,B3,180
4,B4,360
5,B5,74
6,B6,240
7,B7,70
8,B8,410
9,B9,100
10,B10,420
11,B11,380
12,B12,110
13,B13,190
14,B14,440
15,B15,180
16,B16,84
17,B17,450

row,Binder,Kd [nM]
1,B18,500
2,B19,78
3,B20,230
4,B21,160
5,B22,200
6,B23,140
7,B24,430
8,B25,75
9,B26,280
10,B27,520
11,B28,140
12,B29,220
13,B30,78
14,B31,200
15,B32,160
16,B33,350

# Target: T1, AFP158/HLA-A*02:01 complex
# Assay: SPR, KD ratio to AS170036 VL1VH1;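 further: crude scFv captured on a sensor chip, peptide–HLA complex passed over at several concentrations, association then buffer dissociation, KD derived from on- and off-rates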
# Experimental: as §1
row,Binder,Affinity increase [fold]
1,B1,0.5
2,B2,1
3,B3,1.4
4,B4,0.7
5,B5,3.3
6,B6,1
7,B7,3.5
8,B8,0.6
9,B9,2.4
10,B10,0.6
11,B11,0.6
12,B12,2.3
13,B13,1.3
14,B14,0.6
15,B15,1.3
16,B16,2.9
17,B17,0.5

row,Binder,Affinity increase [fold]
1,B18,0.5
2,B19,3.1
3,B20,1.1
4,B21,1.5
5,B22,1.2
6,B23,1.8
7,B24,0.6
8,B25,3.3
9,B26,0.9
10,B27,0.5
11,B28,1.8
12,B29,1.1
13,B30,3.2
14,B31,1.2
15,B32,1.6
16,B33,0.7

# Target: T2, AFP158/HLA-A*02:01 complex (human)
# T2 construct: flowed as analyte in SPR
# Assay: SPR, crude scFv captured, pMHC analyte;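 further: Peptide-MHC complex at several concentrations passed over captured scFv, association then buffer-driven dissociation, on- and off-rates fitted from the curves and KD estimated from them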
# Experimental: as §1
Binder,Kd [nM],koff [s⁻¹],kon [M⁻¹ s⁻¹]
B34,98,0.022,230000
B35,92,0.025,270000
B36,42,0.012,290000
B37,35,0.006,170000
B38,42,0.015,370000

# Target: T1, AFP158/HLA-A*02:01 complex
# Assay: SPR, KD ratio to AS170036 VL1VH1;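 further: crude scFv captured on a sensor chip, peptide–HLA complex passed over at several concentrations, association then buffer dissociation, KD derived from on- and off-rates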
# Remark: another data set of the same source
# Experimental: as §1
row,Binder,Affinity increase [fold]
1,B1,0.5
2,B2,1
3,B3,1.4
4,B4,0.7
5,B5,3.3
6,B6,1
7,B7,3.5
8,B8,0.6
9,B9,2.4
10,B10,0.6
11,B11,0.6
12,B12,2.3
13,B13,1.3
14,B14,0.6
15,B15,1.3
16,B16,2.9
17,B17,0.5

row,Binder,Affinity increase [fold]
1,B18,0.5
2,B19,3.1
3,B20,1.1
4,B21,1.5
5,B22,1.2
6,B23,1.8
7,B24,0.6
8,B25,3.3
9,B26,0.9
10,B27,0.5
11,B28,1.8
12,B29,1.1
13,B30,3.2
14,B31,1.2
15,B32,1.6
16,B33,0.7

# Target: T2, AFP158/HLA-A*02:01 complex
# Assay: SPR, fold vs AS170036 VL1VH1
# Experimental: as §1
row,Binder,Affinity increase [fold]
1,B34,2.3
2,B35,2.5
3,B36,5.5
4,B37,6.6
5,B38,5.5

# Target: T1, AFP158/HLA-A*02:01 complex
# Assay: SPR, scFv captured, pMHC in flow;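 further: complex injected at several concentrations over crude scFv, association then running-buffer dissociation, KD estimated from kinetic on- and off-rate constants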
# Remark: another data set of the same source
# Experimental: as §1
row,Binder,Kd [nM]
1,B1,540
2,B2,240
3,B3,180
4,B4,360
5,B5,74
6,B6,240
7,B7,70
8,B8,410
9,B9,100
10,B10,420
11,B11,380
12,B12,110
13,B13,190
14,B14,440
15,B15,180
16,B16,84
17,B17,450

row,Binder,Kd [nM]
1,B18,500
2,B19,78
3,B20,230
4,B21,160
5,B22,200
6,B23,140
7,B24,430
8,B25,75
9,B26,280
10,B27,520
11,B28,140
12,B29,220
13,B30,78
14,B31,200
15,B32,160
16,B33,350
